Laboratory results as given in US20230400461A1 (TEKNOLOGIAN TUTKIMUSKESKUS VTT, published 2023).

T1: Staphylococcus aureus Enterotoxin B (Staphylococcus aureus, UniProt P01552 28-266)
T1 sequence: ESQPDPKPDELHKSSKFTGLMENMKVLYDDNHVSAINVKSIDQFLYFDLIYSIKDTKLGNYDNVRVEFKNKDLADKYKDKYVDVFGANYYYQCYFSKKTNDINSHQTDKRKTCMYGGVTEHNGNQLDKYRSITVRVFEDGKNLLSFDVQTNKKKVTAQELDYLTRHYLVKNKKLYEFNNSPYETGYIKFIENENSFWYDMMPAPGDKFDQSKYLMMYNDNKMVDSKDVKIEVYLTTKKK

T2: Staphylococcus aureus Enterotoxin A (Staphylococcus aureus, UniProt P0A0L2 25-257)
T2 sequence: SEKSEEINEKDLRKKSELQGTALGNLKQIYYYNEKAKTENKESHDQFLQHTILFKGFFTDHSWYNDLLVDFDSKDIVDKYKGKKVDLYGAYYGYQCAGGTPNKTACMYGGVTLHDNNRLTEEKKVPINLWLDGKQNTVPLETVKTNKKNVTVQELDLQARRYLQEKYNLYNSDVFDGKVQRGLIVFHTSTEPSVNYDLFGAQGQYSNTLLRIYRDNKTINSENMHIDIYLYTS


What was measured:
[1] = molecular target: T1, Staphylococcus aureus Enterotoxin B; assay: ELISA (screening; results not shown)
[2] = molecular target: T2, Staphylococcus aureus Enterotoxin A

Binder	binding result [1]	Kd [2]	koff [2]	kon [2]
anti-SEA (55) Fab (Fab, V domains shown) VH: QVQLQQSGAELMKPGASVKISCKATGYTISSHWIEWVKQRPGHGLEWIGETLPGSGSTKYNEKFKGKATITADTSSNTAYMQLSSLTSEDSAVYYCARGDGNYGWFAYWGQGTLVTVSA VL: DIVLTQSPALMAASPGEKVTITCSVSSSISSSNLHWYQQKSETSPKPWIYGTSNLASGVPVRFSGSGSGTSYSLTISSMEAEDAATYYCQQWSSYPLTFGAGTKLELK	no binding	3.6 nM	0.00035 s⁻¹	97000 M⁻¹ s⁻¹
anti-SEA (90) Fab (Fab, V domains shown) VH: EVQLQQSGPELVKPGASVKMSCKASGYTFTSYVMQWVKQKPGQGLEWIGYINPYNDGTKYNEKFKGKATLTSDKSSSTAYMELSSLTSEDSAVYYCARGDGVGGMDYWGQGTSVTVSS VL: DIVMTQSPATLSVTPGDRVSLSCRASQSISDYLHWYQQKSHESPRLLIKYASQSISGIPSRFSGSGSGSDFTLSINSVEPEDVGVYYCQNGHSFPPTFGGGTKLEIK	no binding	3 nM	0.0013 s⁻¹	420000 M⁻¹ s⁻¹
